Measurements reported in the nanobody polyreactivity screen of Harvey et al. (2022).

experiment: yeast display, Sf9 membrane polyspecificity reagent, FACS + sequencing; frameworks hold sequencing errors
Method in brief: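 Nanobodies came from a synthetic yeast display library in Saccharomyces cerevisiae BJ5465, induced with galactose for 36–48 hours and stained for 1 hour at 4 °C with 10% biotinylated, detergent-solubilized Sf9 membrane reagent. Cells were enriched on streptavidin microbeads and then FACS-sorted, with low and high (top ~1%) gates set on anti-HA fluorescence for expression and streptavidin fluorescence for reagent binding. Each polyreactivity label reflects the gate a clone came from. Genes were amplified by colony PCR, sequenced by MiSeq 2 × 250 and filtered by CDR length.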

Row | Sequence | polyreactivity (PSR sort gate)
1 | QVQLVESGGGLVQAGGSLRLSCAASGRIFKYYVMGWYRQAPGKERELVAAISSGSGSTYYADSVKGRFTISRDNAKNTVYLQMNSLKPEDTAVYYCNALSSWRRTYGSRYDYWGQGTQVTVSS | high polyreactivity
2 | QVQLVESGGGLVQAGGSLRLSCAASGIIFRRYAMGWYRQEPGKARELVAAITSGGDTNYADSVKGRFTLSRDNAKNTVYLQMNSLKPEDTAVYYCNAGLRGVRRYGFDYWGQGTQVTVSS | high polyreactivity
3 | QVQLVESGGGLVQAGGSLRLSCAASGITFKYYAMGWYRQAPGKERELVAAINWSGDRTYYADSVKGRFTISRDNAKNTVYLQMNSLKPEDTAVYYCAATAWPGRYWRQEVDYWGQGTQVTVSS | high polyreactivity
4 | QVQLVESGGGLVQAGGSLRLSCAASGITFYFYAMGWSRQAPGKERELVSTISGGGSTSYADSVKGRFTISRDNAKNSVYLQMNSLKPEDTAVYYCAATGYSLRSGKRRPLRSGYYYWGQGTQVTVSW | high polyreactivity
5 | QVQLVESGGGLVQAGGSLRLSCAASGITFKWYAMGWYRQAPGKERELVAAISWSTGSTYYADSVKGRFTISRDNAKNTVYLQMNSLKPEDTSVYYCAARVKRPQTGYDRRYGYWGQGTQVTVSS | high polyreactivity
6 | QVQLVESGGGLVQAGGSLRLSCAASGSTFIGNAMGWYRQAPGKERELVAAITRSGGSTFYADSVKGRFTISRDNAKNTVYLQMNSLKPEDTAVYYCSAKGNPYRVPGSSYPKVNYWGQGTQVTVSS | high polyreactivity
7 | QVQLVESGGGLVQARGSLRLSCAASGSIFSYYARGLYRQAPGKESELVAAITRGGTTYYADSVKGRFTISRDNAKNSVYLQMNSLKPEDTAVYYCAVYYYSGTAGYRYGYWGQGSQVTVSS | high polyreactivity
8 | QVQLVESGGGLVQAGGSLRLSCAASGRTFFRYAMGWYRQAPGKERELVAAISSRGGSTYYADSVKGRFTISRDNAKNTVYLQMNSLKPEDTAVYYCNADAFINFILYDYWGQGTQVTVSS | high polyreactivity
9 | QVQLVESGGGLVQAGGSLRLSCAASGRIFGGNTMGWYRQAPGKERELVAAITSGGSTTYADSVKGRFTISRDNAKNTVYLHMNSLKPEDSEVYYCAARYVYPHQWTPYIRPYDYWGQGTQVTVSS | low polyreactivity
10 | QVQLVESGGGLVQAGGSLRLSCAASGLIFYAYAMGWYRQAPGKERELVAGIWIDDSTYYADSVKGRFTISRDNAKNTVYLQMNSLKPEDTAVYYCNKRVRSYYLYRGDYWGQGTQVTVSS | low polyreactivity
11 | QVQLVVSGGGLVQAGGSLRLSCAASGITFYEYAMGWYRQSPGKESELVATITSGGNTNYADSVKGRFTISRDNAKNTGYLLMNSLIPEDTSVYYCAASVGYYSRYGYGYWGQGTQVTVSS | low polyreactivity
12 | QVQLVESGGGLVQAGGSLRLSCAASGLIFHTYAMGWYRQAPGKERELVAAIRGGGSTNYADSVKGRFTISRDNAKNTVYLQMKSLKPEDTAVYYCNATWNLFPGVLDRYDYWGQGTQVTVSS | low polyreactivity
13 | QVQLVESGGGLVQAGCSLRLSCAASRYIFYFYAMGWYRQAPGKERELVAAINSGGTTNYADSVKGRFTISRDNAKNTVYLQMNSLKAEDTAVYYCAARLLIRYYYWGQGTQVTVSS | high polyreactivity
14 | QVQLVESGGGLVQAGGSLRLSCAASGSIFYANTMGWYRQAPGKEREFVAAITWSGGSTYYADSVKGRFTISRDNAKNTVYLQMNSLKPEDTAVYYCAAEEQRYWYEYYYWGQGTQVTVSS | high polyreactivity
15 | QVQLVESGGGLVQAGGSLRLSCAASGSTFGGNAMGWYRQAPGKEREFVAAISYSGGSTYYADSVKGRFTISRDNAKNTVYLQMNSLKPEDTAVYYCAATGEPPVFRNGYWGQGTQVTVSS | low polyreactivity
16 | QVQLVESWGGLVQAGGSLRLSCAASGSNFELYAMGWYRQAPGKERELVASITWSASNTHYADSVKGRFTISRDNAKNTVYLQINSLKTEDTAVYYCAKDVLYGLFDGDSWGQGTQVTVSS | low polyreactivity
17 | QVQLVESGGGLVQAGGSLRLSCAASGSTFPVNTMGWYRQAPGKERELVAAITKNGANTYYADSVKGRFTLSRDNAKNTVFLQMNSLKPEDTAVYYCAARYVYGKSYSRWLVELDYWGQATQVTVSS | low polyreactivity
18 | QVQLVESGGGLVQAGGSLRLSCAASGSTLYPYDMGWYRPAPGKERELVAAIDSGGSTNYADSVKGRFTISRDNAKNTVYLQMNSLKPEDTAVYYCATEILTSARDTVVYQFYLGYYYWGQGTQVTVSS | low polyreactivity
19 | QVQLVESGGGLVQAGGSLRLSCAASGYVMGWYRQAPGKERELVAAITRGTSTYYADSVKGRFTISRDNAKNTVYLQMNSLKPEDTAVYYCAARTPGVSVYKDGYWGQGTQVTVSS | low polyreactivity
20 | QVQLVESGGGLVQAGGSLRLSCAASGRIFGPYAMGWYRQAPGKERELVAAISGRGSSTYYADSVKGRFTISRDNAKNTVYLQMNSLKPEDTAVYYCAKYPTYSYDYWGQGTQVTVSS | high polyreactivity
21 | QVHLVESGGGLVQAGGSHRLSCAAYGRIFRANAKGWYRQAPGKERELVASITYSGGSTYYADSVKGRFTISRDNAKNTVYLQMNSLKPEDTAVYYCARAGISSGGYYYWGQGTQVTVSS | low polyreactivity
22 | QVQLVESGGGLVQAGGSLRLSCAASGSILLFYVMGGYRQAPGKERELVAAITSSGGGTYYADSVKGRFTISRDNAKNTVYLQMNSLKPEDTALYYCNADDDYYGESYGPEFDYWGQGTQVTVSS | low polyreactivity

Row | Sequence | polyreactivity (PSR sort gate)
23 | QVQLVESGGGLLQAGGSLRLICAASGSTFSTNAMGWYRQAPGKERELVAAISRSGGSTNYADSVKGRFTISRDNAKNTVYLQMNSLKPEDTAVYYCARYSYRGTNVRYDYWGQGTQVTVSS | high polyreactivity
24 | QVQLVESGGGLVQAGGSLRLSCAASGIIFWHYAMGRYIQAPGKERELVADISRRGGSTYYADSVKGRFTISRDNAKNTVYLQMNSLKPVDTAVYYCAARYHPGGYDSWGQGTQVTVSS | low polyreactivity
25 | QVQLVESGGGLVQAGGSLRLSCAASGSTLVYNDMGWYRQAPGKEREFVAAIRSNDGSTYYADSVKGRFTISRDNAKNTVYLQMNSLKPEDTAVYYCNKDVWDGYDWPEFDYWGQGTQVTVSS | low polyreactivity
26 | QVQLVESGGGLVQAGGSLRLSCAASGSTFSYYAMGWYRQAPGKERELVADISSGGSTNYADSVKGRFTISRDNAKNTVYLQMNSLKPEDTAVYYCNRRYSYYDGFDYWGQGTQVTLSS | low polyreactivity
27 | QVQLVESGGGLVQAGGSLRLTCAASGSTFQHYAMGWYRQAPGKEMELVAAITNTGGSTYYADSVKGRFTISRDNAKNTVYLQMNSLKPEDNAVYYCATVARRYGYPGYYWGQGTQVTVSS | low polyreactivity
28 | QVQLVESGGGLVQAGGSLRLSCAASGFTFYKYVMGWYRQAPGKERELVAAISYSSGSTYYADSVKGRFTISRDNAKNTVYLQMNSLKPEDTAVYYCAARTYYAPQNMGYWGQGTQVTVSS | high polyreactivity
29 | QVQLVESGGGLVQAGGSLRLSCAASGSTFPYYAMGWYRQAPGKERELVAAITSGGSTNYADSVKGRFTISRDNAKNTVYLQMNSLKPEDTAVYYCAADFALPNALPEYDYGAFDYNYWGQGTQVTVSS | low polyreactivity
30 | QVQLVESGGGLVQAGGSLRLSCAASGFTFIKYAMGWYRQAPGKEREFDATISWNGGNTYYADSVKGRFTISRDKAKNTVYLQMNSLKPEDTAVYYCAARVKYRTRGGTVVSYDYWGQGTQVTVSS | high polyreactivity
31 | QVQLVESGGGLDQAGGSLRLSCAASGGTFDTYAMGWYRQAPGKERELVAGIDWSGGSTYYADSVKGRFTISRDNAKNTVYLQMNSLKPEDTAVYYCAADYYYPSQMDYWGQGTQVTVSS | low polyreactivity
32 | QVQLIESGGGLVQAGGSLRLSCAASGIIFRTYAMGWYRQAPGKERELVAAITSGGSTNYADSVKGRFTISRDNAKNTVYLQMNSLKPEDTAVYYCAARTYTSRYSYGYWGQGTQVTVSS | high polyreactivity
33 | QVQLVESGGGLVQAGGSLRLSCAASGRIFAWYAMGWYRQAPGKERELVAGISWIGGSTYYADSVKGRFTISRDNAKNTVYLQMNSLKPEDTAVYYCNARKKPGSRLDIIGYDYWGQGTQVTVSS | low polyreactivity
34 | QVQLVESGGGLVQAGGILRLSCAASGSIFYRNAMGWYRQAPGKERELVAAISARGGRTNYADSVKGRFTISRDNAKYTVYLQMNSLKPEDTAVYYCNTADSWYHRSQAYDYWGQGTQVTVSS | high polyreactivity
35 | QVQLVETGGGLVQAGGSLRLSCAASGRIFGVNARGWYRQAPGKERELVAAIFSGGSTYYADSVKGRFTISRDNAKNTVYVEMNSLKPEDTAVYYCAARFARYDWSMYYWGQGTQVTVSS | low polyreactivity
36 | QDQLVESGGRLVQAGGSLRLSCAASGRTVYYYTMGWYRQAPGKEREFVAGIRYSGSSTYYADSVKGRFTISRDTAKNTVSFQMNSLKPEATAVYYCAASLWRWRFSRFGYWGQGTQVTVSS | high polyreactivity
37 | QVQLVESGGGLVQAGGSLRLSCAASGFTVSWYVMGWYRQAPGKERELVAAITWSGGNTYADSVKGRFTISRDNAKNTVYLQMNSLKPEDTAVYYCAADPAHGTKWYVYPSHDDYWGQGTQVTVSS | low polyreactivity
38 | QVQLVESGGGLVQAGGSLRLSCAASGSTSRYNAMGWYRQAPGKERELVARINSGGTTNYADSVKGRFTISRDNAKNTVYLQMNSLKPEDTAVYYCNAYYYFWGQGTQVTVSS | low polyreactivity
39 | LVHLQESGGGMVQAGGSLRLSGAAIGYISWADYMGWYRQAPGKERELVAGIGYGSTTYYADSVKGRFTISRDNAKNTAYLQMNSLKPEDTGVYYCAVGLDRDTAYKYWGQGTQVTVSS | low polyreactivity
40 | QVQLVESGGGLVQAGGSLRLSCAASGIIFSWYAMGWYRQAPGKERELVATISGGGGSTYYADSVKGRFTISRDNAKNTVYLQMNSLKPEDTAVYYCAADYWNFNWRYKLYRPYDYWGQGTQVTVSS | high polyreactivity
41 | QVQLVESGGGLVLAGGSLRLSCAASGRIFAVYAMGWYRQAPGQERELVAAIRARGGSTYYADSVKGRFTISRDNAKNTVDLQMNSLKPEDTPDYYCTARTSYSRTYRYYYWGQGTQVTVSS | high polyreactivity
42 | QVQLVESGGGLVQAGGSLRLSCAASGSTFTSNTRWYRPAPGKERELVAAISSSGRTYYADSVKGRFTISRDNAKNTVYLQMNSLKPEDTAVYYCAARGREFGYWGQGTQVTVSS | high polyreactivity
43 | QVQLVESGGGLVQAGGSLRLSCAASGRYFGYNAMGWYRQAPGKERELVAAITGSGGSTYYADSVKGRFTISLDNAKHTVYLQIISLKPEDTAVYYCAADRFYHSAEYDYWGQGTQVTVSS | low polyreactivity
